First the molecules themselves.
B1: target 1 U10G,G12C (mixed)
RNA 1: CACCCGUGCAAAAAUGCAGGGGUCUAAAACUGAGCGGAUAACCUCUCUAUGG
RNA 2: GGGAAUGGAUCCACAUCUACGAAUUCGUACCAUAGAGAGCUGAUCCGCUCACCGAGAUCGGAAGAGCACACGU
B2: target 1 insA 3' of 11,insC 3' of 5 (mixed)
RNA 1: B1 RNA 1
RNA 2: GGGAAUGGAUCCACAUCUACGAAUUCGUACCAUAGAGAGGUAUAUCCGCCUCACCGAGAUCGGAAGAGCACACGU
B3: target 1 U11C,G13C (mixed)
RNA 1: B1 RNA 1
RNA 2: B1 RNA 2 with G39C, C40G, U41C, G42U
B4: target 1 U3G,C4G (mixed)
RNA 1: B1 RNA 1
RNA 2: B1 RNA 2 with C40G, G42U, C48G, U49G
B5: target 1 insC 3' of 14,insC 3' of 13 (mixed)
RNA 1: B1 RNA 1
RNA 2: B2 RNA 2 with G39C, U41C, A42G, A44U, U45A, C46U, G48C, C49G
B6: target 1 U11A,G13C (mixed)
RNA 1: B1 RNA 1
RNA 2: B1 RNA 2 with G39C, C40G, U41A, G42U
B7: target 1 C4A,U11C (mixed)
RNA 1: B1 RNA 1
RNA 2: B1 RNA 2 with C40G, U41C, G42U, C48A
B8: target 1 A9G,C22U (mixed)
RNA 1: B1 RNA 1
RNA 2: B1 RNA 2 with C30U, C40G, G42U, A43G
B9: target 1 insC 3' of 15,insA 3' of 6 (mixed)
RNA 1: B1 RNA 1
RNA 2: B2 RNA 2 with A38C, G39A, U41G, A42U, G48A, C49G
B10: target 1 insC 3' of 5,insA 3' of 3 (mixed)
RNA 1: B1 RNA 1
RNA 2: B2 RNA 2 with A42U, U43A, A44U, U45C, C47G, G48C, C50U, U51A
B11: target 1 U8G,C21U (mixed)
RNA 1: B1 RNA 1
RNA 2: B1 RNA 2 with C31U, C40G, G42U, U44G
B12: target 1 U3C,G13C (mixed)
RNA 1: B1 RNA 1
RNA 2: B1 RNA 2 with G39C, C40G, G42U, U49C
B13: target 1 insC 3' of 8,insA 3' of 4 (mixed)
RNA 1: B1 RNA 1
RNA 2: B2 RNA 2 with A42U, U43A, A44U, U45C, C50A
B14: target 1 insC 3' of 12,insA 3' of 3 (mixed)
RNA 1: B1 RNA 1
RNA 2: B2 RNA 2 with U41C, A42U, C50U, U51A
B15: target 1 insU 3' of 13,insA 3' of 11 (mixed)
RNA 1: B1 RNA 1
RNA 2: B2 RNA 2 with G40U, U41G, A42U, U43A, A44U, U45A, C46U, G48C, C49G
B16: target 1 complement block 6-11 (mixed)
RNA 1: B1 RNA 1
RNA 2: B1 RNA 2 with C40G, U41A, G42A, A43U, U44A, C45G, C46G
B17: target 1 insA 3' of 13,insC 3' of 8 (mixed)
RNA 1: B1 RNA 1
RNA 2: B2 RNA 2 with G40A, U41G, A42U, G48C, C49G
B18: target 1 C4U,G12C (mixed)
RNA 1: B1 RNA 1
RNA 2: B1 RNA 2 with G42U, C48U
B19: target 1 insA 3' of 12,insA 3' of 12 (mixed)
RNA 1: B1 RNA 1
RNA 2: B2 RNA 2 with U41A, A44U, U45A, C46U, G48C, C49G
B20: target 1 insC 3' of 13,insA 3' of 5 (mixed)
RNA 1: B1 RNA 1
RNA 2: B2 RNA 2 with G40C, U41G, A42U, C49A
B21: target 1 insA 3' of 15,insA 3' of 6 (mixed)
RNA 1: B1 RNA 1
RNA 2: B2 RNA 2 with G39A, U41G, A42U, G48A, C49G
B22: target 1 A1G,C7A (mixed)
RNA 1: B1 RNA 1
RNA 2: B1 RNA 2 with C40G, G42U, C45A, A51G
B23: target 1 insC 3' of 20,insC 3' of 12 (mixed)
RNA 1: B1 RNA 1
RNA 2: GGGAAUGGAUCCACAUCUACGAAUUCGUACCACUAGAGAGGCUUAUCCGCUCACCGAGAUCGGAAGAGCACACGU
B24: target 1 U8A,G12A (mixed)
RNA 1: B1 RNA 1
RNA 2: B1 RNA 2 with C40A, G42U, U44A
B25: target 1 insC 3' of 19,insA 3' of 8 (mixed)
RNA 1: B1 RNA 1
RNA 2: B23 RNA 2 with C33U, U34C, C42U, U44A, A45U, U46A
B26: target 1 insA 3' of 17,insU 3' of 13 (mixed)
RNA 1: B1 RNA 1
RNA 2: B23 RNA 2 with C33U, U34A, A35G, G36A, G41U, C42G
B27: target 1 C4G,G13A (mixed)
RNA 1: B1 RNA 1
RNA 2: B1 RNA 2 with G39A, C40G, G42U, C48G
B28: target 1 G12U,A14U (mixed)
RNA 1: B1 RNA 1
RNA 2: B1 RNA 2 with A38U, C40U, G42U
B29: target 1 insC 3' of 20,insA 3' of 19 (mixed)
RNA 1: B1 RNA 1
RNA 2: B23 RNA 2 with G36A, A37G, G38A, A39G, G40A, C42G
B30: target 1 insG 3' of 9,insU 3' of 5 (mixed)
RNA 1: B1 RNA 1
RNA 2: B2 RNA 2 with A42U, U43A, A44G, C49U
B31: target 1 insU 3' of 21,insA 3' of 13 (mixed)
RNA 1: B1 RNA 1
RNA 2: B23 RNA 2 with A32U, C33A, G41A, C42G
B32: target 1 insC 3' of 14,insU 3' of 6 (mixed)
RNA 1: B1 RNA 1
RNA 2: B2 RNA 2 with G39C, U41G, A42U, G48U, C49G

Changes are numbered by the printed parent chain. Numbers in names are those of the source.

This series concerns the target T1, EsCas13d, nuclease-dead (Eubacterium siraeum, UniProt B0MS50, R295A;H300A;R849A;H854A).
T1 sequence: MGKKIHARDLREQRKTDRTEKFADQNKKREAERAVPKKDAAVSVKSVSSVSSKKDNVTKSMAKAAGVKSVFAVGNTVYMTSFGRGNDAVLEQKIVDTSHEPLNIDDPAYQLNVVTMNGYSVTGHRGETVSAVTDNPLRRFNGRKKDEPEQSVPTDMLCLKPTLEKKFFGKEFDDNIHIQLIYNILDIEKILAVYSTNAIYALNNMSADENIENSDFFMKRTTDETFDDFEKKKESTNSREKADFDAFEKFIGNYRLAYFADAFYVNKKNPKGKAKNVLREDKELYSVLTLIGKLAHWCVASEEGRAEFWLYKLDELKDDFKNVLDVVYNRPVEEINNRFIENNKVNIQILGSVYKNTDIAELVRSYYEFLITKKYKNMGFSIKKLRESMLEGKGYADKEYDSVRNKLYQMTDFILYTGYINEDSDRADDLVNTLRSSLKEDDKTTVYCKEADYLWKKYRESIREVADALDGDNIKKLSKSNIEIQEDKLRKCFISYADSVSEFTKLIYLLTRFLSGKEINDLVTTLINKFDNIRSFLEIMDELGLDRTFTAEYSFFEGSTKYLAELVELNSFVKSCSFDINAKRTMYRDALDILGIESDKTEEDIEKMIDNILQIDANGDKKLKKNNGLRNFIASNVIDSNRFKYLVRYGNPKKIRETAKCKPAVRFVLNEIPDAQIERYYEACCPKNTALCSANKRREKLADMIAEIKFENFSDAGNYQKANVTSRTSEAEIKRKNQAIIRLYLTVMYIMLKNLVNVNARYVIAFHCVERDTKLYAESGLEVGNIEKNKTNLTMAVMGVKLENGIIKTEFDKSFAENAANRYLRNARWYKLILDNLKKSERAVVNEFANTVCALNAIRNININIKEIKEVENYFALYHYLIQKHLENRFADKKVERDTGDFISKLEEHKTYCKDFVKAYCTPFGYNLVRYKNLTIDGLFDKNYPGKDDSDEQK
The series can be described thus: crRNA (strand 1, pre-loaded); Mg2+; 40 mM Tris-HCl pH 7.5, 150 mM NaCl, 6 mM MgCl2, 1 mM DTT, 0.1% Tween-20, 0.2 mg/ml BSA; 25 C; 10 min per concentration, then washed. The note with it: tags: His6-TwinStrep-SUMO cleaved; N-terminal SNAP kept (SNAP-Surface 488); label: 3' end held by stalled T7 RNA polymerase.
The molecule B1 showed a Kd of 22.7 ± 1.3 nM.

B2 returned a Kd of 12.7 ± 1.2 nM.

As for B3, the affinity, expressed as Kd, was 62 ± 23 nM.

As for B4, the Kd turned out to be 5.2 ± 0.4 nM.

In turn, B5 returned a dissociation constant (Kd) of 53 ± 9 nM.

The molecule B6 came in with a Kd of 42 ± 7 nM.

For the molecule B7, the dissociation constant Kd amounted to 10 ± 0.9 nM.

In the case of B8, the Kd is 27.3 ± 2.3 nM.

As for B9, the Kd was 22.4 ± 1.5 nM.

Turning to B10, binding was put at a Kd of 30 ± 4 nM.

Molecule B11 had a Kd of 8.34 ± 0.26 nM.

Consider B12, for which binding was characterised by a dissociation constant (Kd) of 36 ± 4 nM.

Take B13: binding was characterised by a dissociation constant (Kd) of 12 ± 0.9 nM.

B14 had a Kd of 9.3 ± 0.8 nM.

In turn, B15 showed a Kd of 12.3 ± 1.4 nM.

B16 showed a Kd of 14.5 ± 1.2 nM.

With B17, the affinity, expressed as Kd, was 6.4 ± 0.8 nM.

As for B18, binding was characterised by a dissociation constant (Kd) of 22.4 ± 3.3 nM.

B19 gave a Kd of 14.3 ± 0.7 nM.

On to B20, for which the Kd turned out to be 6.7 ± 1.3 nM.

The molecule B21 registered a Kd of 14.4 ± 1.4 nM.

As for B22, the Kd was determined as 8.7 ± 0.5 nM.

As to B23, the affinity, expressed as Kd, was 11.9 ± 2.4 nM.

As to B24, the Kd amounted to 8.6 ± 0.8 nM.

In turn, B25 came in with a Kd of 47 ± 4 nM.

For the molecule B26, the Kd was 22 ± 4 nM.

On to B27, for which the Kd turned out to be 7.3 ± 0.9 nM.

B28 gave a Kd of 25 ± 9 nM.

As to B29, the Kd was determined as 9.1 ± 1 nM.

Regarding B30, the Kd was 14.4 ± 0.9 nM.

B31 returned a Kd of 21.3 ± 1.3 nM.

Molecule B32 returned a dissociation constant (Kd) of 53 ± 25 nM.

(Values after PMC10786891, “Massively parallel profiling of RNA-targeting CRISPR-Cas13d”.)
